Measured values taken from patent US20050163796A1.
Read-outs that look alike come from different tables or passages of the source.

Key:
[1] = target: HLA-B*0702 on HLA-B*0702 transfected TAP- T2 cells (human); assay: HLA-B*0702 stabilisation on T2-B*0702 cells, FACS with ME.1 mAb; concentration to reach 20% of maximal fluorescence relative to R10V; settings: scale: ratio of concentrations, tested peptide / R10V reference
[2] = target: HLA-B*0702 on HLA-B*0702 transfected TAP- T2 cells (human)
[3] = scale: ratio of concentrations, tested peptide / R10V reference

Binder | RA (relative affinity) [1] | RA (relative affinity) [2, 3] | other results
TPKKIKPPL (modifications not checked) [T9PL] | 1.29 | – | –
LPLPPLDRL (modifications not checked) [L9RL] | 6.13 | – | –
SPHPRISSEV (modifications not checked) [S10EV] | 1.11 | – | –
QPRSDTHVF (modifications not checked) [Q9VF] | – | 1.56 | –
GPHMPVYPQT (modifications not checked) [G10QT] | – | 22 | –
LPPLDRLTL (modifications not checked) [L9TL] | 3.51 | – | –
QPIQIAIAAL (modifications not checked) [Q10AL] | 6.5 | – | –
KPPLPSVTKL (modifications not checked) [K10KL] | 3.55 | – | –
HPRISSEVHI (modifications not checked) [H10HI] | 3.7 | – | –
PPQGSQTHQV (modifications not checked) [P10QV] | 8.97 | – | –
APTKAKRRVV (modifications not checked) [A10VV] | 1.14 | – | –
YPLASLRSLF (modifications not checked) [Y10LF] | – | – | RA (relative affinity) [2]: 3.25
RPVVSTQLLL (modifications not checked) [R10LL] | 2.25 | – | –
SPVLRLRPPV (modifications not checked) [S10PV] | – | 0.85 | –
AAISPVLRL (modifications not checked) [A9RL] | – | 15 | –
MPVYPQTPT (modifications not checked) [M9PT] | – | 0.94 | –
QPPLYFVHQM (modifications not checked) [Q10QM] | – | 49 | –
IPLGDARLVI (modifications not checked) [I10VI] | 2.33 | – | –
